Reference: US20030170763A1

Target: 30 kDa ragweed complete pollen extract disulfide protein allergen (Ambrosia trifida (giant ragweed))
Assay: Concanavalin A affinity chromatography

percent retained on affinity column: > 90%
Substance: Concanavalin A (from UniProt P02866 30-281)
